Test results reported in patent US5928931A, “Isolation, purification and cloning of retinol dehydratase” (Cornell Research Foundation, Inc., priority 1997, dated 1999).

Assays:
[1] = substrate: Nc1ncnc2c1ncn2[C@@H]1O[C@H](COP(=O)(O)OS(=O)(=O)O)[C@@H](OP(=O)(O)O)[C@H]1O; test: purified protein, by the assay type; details: other: purified recombinant retinol dehydratase, [3H]-retinol assay, n=3; 24.0 °C
[2] = substrate: CC1=C(/C=C/C(C)=C/C=C/C(C)=C/CO)C(C)(C)CCC1; test: Retinol dehydratase assay ([3H]-retinol to [3H]-AR, HPLC radiomatic detection); kinetic studies; type: biochemical, Spodoptera frugiperda; details: 24.0 °C
Description: 20-50 μl aliquots of supernatant/column fractions were incubated with 1 μCi of [^3 H]-retinol and 20 μl of high speed supernatant from sonicated Sf-9 cells in 200 μl assay buffer (20 mM Tris.Cl pH 7.5, 150 mM NaCl, I mM MgCI2) for 15-60 minutes at 24° C. […] Samples were delipidated and [^3 H]-AR production quantified by a liquid scintillation radiomatic detector in series with HPLC gradient elution (20 mM Tris pH 7.4/methanol/chloroform) from a C-18 Reverse Phase 201TP54 column (Vydac, Separations Group, Hesperia, Calif.) as described by McClean et al., Clin. Chem., 28:693-96 (1982) and Derguini et al., Angew.
Kinetic studies were performed with native retinol dehydratase (0.1 μg/assay) and ^3 H-retinol in the presence of constant substrate carrier protein concentrations, either delipidated BSA or recombinant cellular retinol binding protein ("CRBP"). The initial rate of AR synthesis at different substrate concentrations was determined by radiomatic detection of ^3 H-AR after HPLC separation. […] Conversion of ^3 H-retinol was less than 10% of the total at the end point of each assay.
Carrier protein for retinol (delipidated bovine serum albumin or recombinant human CRBP) was added to reduce nonspecific binding and micelle formation.

B1: retinol dehydratase (Spodoptera frugiperda) (protein)
chain: MEKQQDLPFPYEFRELNPEEDKLVKANLGAFPTTYVKLGPKGYMVYRPYLKDAANIYNMPLRPTDVFVASYQRSGTTMTQELVWLIENDLNFEAAKTYMSLRYIYLDGFMIYDPEKQEEYNDILPNPENLDMERYLGLLEYFSRPGSSLLAAVPPTEKRFVKTHLPLSLMPPNMLDTVKMVYLARDPRDVAVSSFHHARLLYLLNKQSNFKDFWEMFHRGLYTLTPYFEHVKEAWAKRHDPNMLFLFYEDYLKDLPGCIARIADFLGKKLSEEQIQRLCEHLNFEKFKNNGAVNMEDYREIGILADGEHFIRKGKAGCWRDYFDEEMTKQAEKWIKDNLKDTDLRYPNMEL
Q: For B1, which Km [1] is on record?
A: 0.26 ± 0.05 µM

Q: And the Km ([2]; other: BSA carrier, second condition as printed)?
A: 0.05 µM

Q: And the Km ([2]; other: n=5, free retinol from carrier protein affinities)?
A: 0.001 µM

Q: What about the Km ([2]; other: native retinol dehydratase 0.1 μg/assay, 3H-retinol, carrier BSA or CRBP, free retinol, representative experiment, non-linear regression) of the same protein?
A: 0.00066 µM

Q: And the Km ([2]; other: with 2×10^-7 M CRBP-1)?
A: 0.025 µM

Q: And the Km ([2]; other: with 10^-3 M BSA)?
A: 0.4 µM
